# Reference: the supplement of paper PMC10567573
# B1: NP_006221.1 (parent)
# chain: CQPISFSGFGAEDDDLGGLGLGP
# B2: CDKN1A (parent)
# chain: RRQTSMTDFYHSKRRLIFSKRKP
# Variants of: B1
# Assay: protein stability index of a GFP-peptide fusion (GPS, HEK-293T) (PSI 1-6); higher = more stable
# Settings: c terminus: native
row,Variant,protein stability index
1,G18T,2.23
2,G18F,2.24
3,G18I,2.18
4,D15T,2.52
5,G10I,2.08
6,E12D,2.22
7,E12F,2.17
8,G17M,1.7
9,G17F,2.08
10,G17P,2.05
11,G17K,2.08
12,G20I,3.2
13,P23R,2.95
14,P23N,4.72
15,P23F,3.04
16,P23E,4.96
17,F6I,3.63
18,F6T,3.93
19,F6P,4.41
20,Q2G,2.1

row,Variant,protein stability index
1,Q2S,2.64
2,Q2I,2.16
3,Q2L,2.51
4,Q2Y,2.09
5,L21M,3.33
6,C1H,2.17
7,C1K,2.06
8,C1P,2.33
9,C1G,2.41
10,P3M,2.15
11,P3S,2.37
12,A11F,1.95
13,A11I,2.65
14,G22H,2.8
15,G22T,2.22
16,G22I,2.37
17,G22M,2.32
18,S7E,2.72
19,S7T,2.19
20,L19Q,2.39

row,Variant,protein stability index
1,L19Y,2.31
2,L19M,2.29
3,G8V,2.16
4,G8Y,2.31
5,G8P,3.55
6,G8C,1.96
7,D13P,2.08
8,I4S,2.31
9,I4N,2.45
10,I4L,2.11
11,F9H,2.42
12,F9M,2.41
13,L16W,2.25
14,L16C,2.34
15,L16H,2.26
16,L16T,2.35
17,D14T,2.18
18,D14S,2.05
19,D14P,2.19
20,D14W,2.48

# Variants of: B2
# Assay: as above
# Settings: c terminus: native
row,Variant,protein stability index
1,Q3T,2.71
2,Q3S,2.27
3,Q3F,2.24
4,Q3R,2.49
5,Q3L,4.67
6,Y10K,1.57
7,Y10W,2.66
8,Y10Q,2.75
9,Y10M,3.11
10,Y10I,2.79
11,R14H,4.02
12,R14K,4.64
13,R14E,3.86
14,H11G,2.88
15,H11V,1.43
16,H11E,2.37
17,H11S,2.69
18,H11D,1.65
19,S19A,2.87
20,S19Q,2.08
21,S19R,2.46
22,R2W,2.28

row,Variant,protein stability index
1,R2K,1.75
2,R2V,2.74
3,R2A,2.1
4,R2S,1.11
5,R2P,3.33
6,S5N,1.73
7,S5E,2.5
8,S5T,2.38
9,S5G,3.9
10,S5Y,2.19
11,K20P,1.54
12,K20A,2.73
13,K20E,2.33
14,K20R,2.21
15,F18T,2.45
16,F18L,1.65
17,F18V,2.3
18,F18R,2.05
19,F18A,2.87
20,F18Q,1.79
21,F18E,3.49
22,F18I,2.23

row,Variant,protein stability index
1,F18K,2.26
2,K22S,3.2
3,K22M,3.93
4,T4Y,2.22
5,T4S,2.62
6,T4C,2.33
7,T7Y,1.79
8,T7R,1.87
9,T7L,1.8
10,T7H,2.4
11,T7Q,2.1
12,I17T,2.63
13,I17E,3.68
14,I17M,3.71
15,I17Y,2.76
16,I17L,3.47
17,R21Y,2.97
18,R21S,3.09
19,R21I,4.52
20,R21F,2.03
21,R21C,3.54
22,R21N,2.79

row,Variant,protein stability index
1,R21L,2.67
2,R21E,3.44
3,L16S,2.86
4,L16T,2.17
5,L16G,3.3
6,L16M,1.54
7,F9D,2.72
8,F9H,4.22
9,F9R,2.54
10,F9G,2.02
11,F9L,2.24
12,F9T,2.25
13,P23M,2.46
14,P23K,2.95
15,P23G,2.48
16,P23C,3.15
17,P23W,3.55
18,P23Y,3.15
19,P23I,2.74
20,R15M,3.54
21,S12P,2.31
22,S12N,3.42

row,Variant,protein stability index
1,S12A,2.99
2,D8M,2.65
3,D8P,2.14
4,D8S,2.95
5,M6K,3.44
6,M6L,2.93
7,M6D,1.96
8,M6W,2.56
9,M6I,2.14
10,R1V,2.34
11,R1S,2.99
12,R1T,3.87
13,R1G,1.02
14,R1Y,2.74
15,K13T,2.31
16,K13H,1.75
17,K13S,3.39
18,K13D,2.39
19,K13A,3
